Test results: patent publication US7258861B2, “TNF-derived peptides for use in treating oedema” (Innogenetics N.V., priority 2001, dated 2007)
Positions of bridges follow the written chain, without caps; N, C: chain ends. No end group written: not given here. *: point of attachment. Biotin = O=C1N[C@H]2[C@H](CS[C@H]2CCCCC(=O)*)N1

B1: mutTNF: E.coli-derived recombinant (T104A-E106A-E109A) triple TNF mutant (protein, UniProt P06804 1-235, looked up, variant T104A E106A E109A)
chain: MSTESMIRDVELAEEALPQKMGGFQNSRRCLCLSLFSFLLVAGATTLFCLLNFGVIGPQRDEKFPNGLPLISSMAQTLTLRSSSQNSSDKPVAHVVANHQVEEQLEWLSQRANALLANGMDLKDNQLVVPADGLYLVYSQVLFKGQGCPDYVLLTHTVSRFAISYQEKVNLLSAVKSPCPKDAPAGAALKPWYEPIYLGGVFQLEKGDQLSAEVNLPKYLDFAESGQVYFGVIAL

What was measured:
[1] = tested on: lung microvascular endothelial cells; test: Whole-cell patch clamp, membrane conductance in lung microvascular endothelial cells; assay type: cell-based, mouse
Source text: (§1) Animals, cells and reagents. Male CBA/J or C57BL/6 mice, as well as male TNFR ½^0/0 C57BL/6 mice deficient in TNF receptors (Bruce et al., 1996) provided by H. Bluethmann, F. Hoffmann-La Roche, Basel, Switzerland, were used at the age of 8–10 weeks. Their care was in accordance with institutional guidelines. Lung microvascular endothelial cells were isolated from CBA/J mice and characterized as described (Jackson et al., 1990) using magnetic beads (Dynabeads M-450, Dynal, Oslo, Norway), covalently bound to a purified rat-anti-mouse PECAM-1 monoclonal antibody (donated by B. Imhof, University of Geneva). Microvascular lung endothelial cells were resuspended in DMEM containing 2 mM L-glutamine, 100 U/ml penicillin, […], 20% FCS, 40 U/ml heparin and […] endothelial cell growth supplement (Brunschwig Chemie, Basel, Switzerland). For patch clamp experiments, cells were plated onto 35×10 mm easy grip Petri dishes (Beckton Dickinson, Plymouth, UK), pre-coated with 0.2% gelatin (Sigma, Buchs, Switzerland). Resident peritoneal macrophages, isolated in ice cold RPMI containing antibiotics and 10 U/ml Heparin, were left to adhere onto 35×10 mm easy grip Petri dishes for 4 h, after which the non-adherent cells were removed. Cells were grown in RPMI 1640 containing 2 mM L-glutamine, 100 U/ml penicillin, 10 μpg/ml streptomycin and 10% fetal bovine serum (all from Gibco). For patch clamp, the macrophages ware used 24 h after isolation.
Electrophysiology. Cells were pretreated for 30 min with TNF, mutTNF and tip peptides at 37° C. in a buffer consisting of 145 mM NaCl, 3 mM KCl, 2mM CaCl2, 2mM MgCl2, 10 mM D-glucose, and 10mM Hepes, and pH-adjusted with NaOH to required value. Cells were then washed with the same buffer pH-adjusted at 7.3, and experiments were performed using the tight-seal, whole-cell recording technique. Currents were recorded with an Axopatch-200A amplifier (Axon Instrument Inc, Foster City, Calif., USA), low pass-filtered at 1 kHz. Digitalization and off-line analysis was performed using the WCP program (J. Dempster, Strathclyde Electrophysiology Software, Glasgow, UK). Patch pipettes were pulled from borosilicate glass and fire polished to have an open resistance of 3–5 MW with an internal solution containing […], 2 mM MgCl2, 10mM EGTA, 20 mM TEA-Cl, 10 mM D-glucose 10 mM Hepes, pH-adjusted to 7.3 with CsOH. Series resistances were kept under 10 MW. Capacitance and series resistance compensation were applied and set to 70%. All experiments were done at room temperature. Results are given as mean ±SEM, unless otherwise indicated. Analysis of variance was performed on currents and membrane conductance values, with post-hoc Dunn-Bonferroni test for significance of differences observed between two groups. A P value of 0.05 was considered significant.

[2] = tested on: resident peritoneal macrophages; test: Whole-cell patch clamp in resident peritoneal macrophages; assay type: cell-based, mouse; conditions: 30 min preincubation, acidic pH
Source text: as §1, with “Cells were grown in RPMI 1640 containing 2 mM L-glutamine, 100 U/ml penicillin, 10 μpg/ml streptomycin and 10% fetal bovine serum (all from Gibco). For patch clamp, the macrophages ware used 24 h after isolation.” left out
(§2) Electrophysiology. […] Currents were recorded with an Axopatch-200A amplifier (Axon Instrument Inc, Foster City, Calif., USA), low pass-filtered at 1 kHz. […]

[3] = tested on: resident peritoneal macrophages from mice deficient in both TNF receptor-1 and -2; test: Whole-cell patch clamp in resident peritoneal macrophages of TNFR1/2-deficient mice; assay type: cell-based, mouse; conditions: cells lacking TNF receptors
Source text: as §1, with “Cells were grown in RPMI 1640 containing 2 mM L-glutamine, 100 U/ml penicillin, 10 μpg/ml streptomycin and 10% fetal bovine serum (all from Gibco). For patch clamp, the macrophages ware used 24 h after isolation.” left out
as §2

isolated rat lungs = test: Isolated lung perfusion experiments (blood perfused, flooded with NaCl); conditions: after injection of 2 ml NaCl solution; 1 mg/lung
Protocol: Lungs of female Whistar rats weighing about 300 g were isolated as described in DeCampos et al. (1993). The lungs were injected intratracheally with either 500 μl of sterile […], wild type murine TNF (1 μg/lung) or mTNF tip peptide (Ltip (SEQ ID NO:6), see above; 1 mg/lung). Subsequently, the lungs were perfused with blood isolated from the same rat. Thirty minutes later, the lungs were injected intratracheally with 2 ml of sterile […] solution which leads to a weight increase of about 2 g (FIG. 5). The weight evolution was then followed continuously for 150 min (FIG. 5).

[4] = Chloride efflux from SPQ-containing liposomes
Protocol: Preparation of liposomes. Large unilamellar liposomes were prepared by reverse phase evaporation as previously described (Vecsey-Semjen et al., 1996). Liposomes were prepared of either 100% egg phosphatidylglycerol (EPG) or a mixture of EPC and EPG (1:1 W/W) in a buffer containing 100 mM KCl, 20 mM N-[2-Hydroxyethyl]piperazine-N′-[2-ethane-sulfonic acid] (HEPES), pH 7.4 and 1.5 mg/ml of 6-methoxy-N-(3-sulfopropyl)quinolinium (SPQ).
Choride efflux measurements. All fluorescence experiments were carried out using a PTI spectrofluorometer equipped with a thermostated cell holder (37° C.). The dye was excited at 350 nm and emission was recorded at 422 nm, both excitation and emission band widths were set to 5 nm. Liposomes were diluted to a final concentration of 50 μg/ml in a solution containing 100 mM KNO3 and 20 mM MES pH 6.1 or 20 mM HEPES, pH 7.4. Wild type and mutant TNF were added to a final concentration of 3 μg/ml.

[5] = Quenching of tryptophan fluorescence by brominated lipids; conditions: acidic pH
Source text: In order to investigate whether chloride efflux was due to membrane binding or membrane insertion of TNF, we have analyzed whether brominated lipids were able to quench the intrinsic fluorescence of TNF and mutTNF upon membrane interaction. Brominated lipids have been useful in determining the topology of membrane proteins (Bolon et al., 1990) (Markello et al., 1985) as well as studying the membrane interaction of pore-forming toxins (Gonzalez-Manas et al., 1992) (Van der Goot et al., 1991) (Vecsey-Semjen et al., 1997). TNF contains two tryptophan residues, one at the top of the receptor binding domain and one at the top of the so called tip domain. If the tip of the TNF trimer were to insert into the lipid bilayer, the fluorescence of Trp-113 should be quenched upon insertion into liposomes composed of dioleoylphosphatidylglycerol that had bromines attached at positions 9 and 10 of the acyl chains. We have indeed previously observed that tryptophans located at the boundary between the lipid head groups and the acyl chains were succeptible to bromide quenching.

[6] = compared to wild-type mTNF in vivo; cited from earlier work
[7] = tested on: murine model of peritonitis; conditions: cited from earlier work
trypanosome = conditions: compared to wild type TNF; cited from earlier work
[8] = Tryptophan fluorescence (acidic unfolding); assay type: physicochemical
Protocol: Tryptophan fluorescence. Fluorescence measurements were made with a PTI spectrofluorimeter. The excitation wavelength was 295 nm and slit widths were 5 nm and 2.5 nm for excitation and emission respectively. For each recorded spectrum, the Raman scatter contribution was removed by subtraction of a buffer blank. All buffers contained 150 mM NaCl, and 20 mM of N-[2-morpholino] ethane-sulfonic acid (MES) buffer at the desired pH. The samples were allowed to incubate for 1 h 30 at the desired pH before measuring the emission spectrum. The wild type and mutant TNF concentrations were 6 μg/ml.

[9] = 30 min preincubation at acidic pH (pH 6), TNF, mutTNF 100 ng/ml, peptides 100 μg/ml

Row | Molecule | induced increase in conductance in presence of amiloride ([1]; 100 μM amiloride added during pretreatment at pH 6.0) | whole cell current / membrane conductance [1, 9] | whole cell current / membrane conductance ([1]; preincubation at pH 7.3 (neutral pH)) | whole cell current [2] | whole cell current [3] | start of weight loss (isolated rat lungs) | change in SPQ fluorescence / interaction with membranes ([4]; peptide concentrations up to 300 μg/ml, neutral, acidic or 1:1 lipids) | fluorescence quenching by brominated lipids [5] | systemic toxicity [6] | peritonitis-protective effect [7] | trypanolytic and lectin-like affinity to oligosaccharides (trypanosome) | chloride efflux (SPQ fluorescence) ([4]; 100% EPG liposomes, pH 6.1, 3 μg/ml) | interaction with membranes ([4]; neutral pH) | acidic unfolding ([8]; acidification of the medium) | maximum emission of tryptophan fluorescence ([8]; pH 4.6) [nm] | maximum emission of tryptophan fluorescence ([8]; pH 6) [nm]
1 | GG-CGPKDTPEGAELKPWYC (Biotin-GGCGPKDTPEGAELKPWYC; disulfide 3-19; listed as Mus musculus) [LTip] | blocked | increased outward, and inward currents | persisted at neutral pH, although less pronounced | increased outward | also active | started immediately | unable to interact with membranes | – | – | – | – | – | – | – | – | –
2 | B1 | – | completely lacked the conductance activating effect | – | – | – | – | – | unable to see any fluorescence quenching | significantly reduced systemic toxicity | retains its peritonitis-protective effect | lacks the trypanolytic and lectin-like affinity to oligosaccharides | even more pronounced than that of wild type TNF | did not interact with membranes | able to undergo acidic unfolding | 339 | 318
